We go through two molecules from US20200239586A1 (LA TROBE UNIVERSITY, published 2020).

Experiment [1] deals with phage expressed hFn14 mutant D51A (human, UniProt Q9NP84 28-77). Description: phage ELISA (Method 2): antibody coated on the plate, 10-fold dilutions of phage displaying hFn14 D51A; biotin anti-M13 antibody, streptavidin-HRP, TMB, OD 450 nm; x axis = dilution of phage. The source says: (§1) ELISAs showing the reactivity of mutant hFn14 phage constructs with the anti-Fn14 monoclonal antibodies CRCBT-06-001, CRCBT-06-002, CRCBT-06-004 compared to ITEM-1 and ITEM-4. Binding was detected using Biotin-conjugated anti-M13-phage monoclonal antibody followed by HRP-conjugated Streptavidin and TMB substrate. Optical density at 450 nm was quantified using a Spectramax spectrophotometer. Error bars for each dilution represent the standard deviation of duplicate assays. FIG. 28A L46A, FIG. 28B D51A and FIG. 28C D62A. In all cases error bars represent the standard deviation. X axis=dilution of phage. Methods according to Epitope mapping using phage expressed Fn14—Method 2.
Sequence of phage expressed hFn14 mutant D51A (Q9NP84 28-77 D51A): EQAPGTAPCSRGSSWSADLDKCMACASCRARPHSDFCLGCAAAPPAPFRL
The wells of Maxisorp immunoplates (Nunc) were coated overnight at 4° C. with the target monoclonal antibodies or recombinant Tweak-Fc at a concentration of 1.5 μg/ml in PBS. mAb 5G8 was used as a negative control for ELISA plates coated with tested antibodies. […] 10-fold serial dilutions of phage were made using PBS solution and phage dilutions were added to the coated, blocked ELISA plates for 1 hour, shaking at room temperature. […]
Method A: HRP-conjugated anti-M13-phage antibody (GE Healthcare) at a 1/5000 dilution in PBS was then added to the wells of the ELISA plates for 1 hour, shaking at room temperature. […] Optical density at 450 nm was quantified using a Spectramax absorbance spectrophotometer.

In experiment [2] the target is phage expressed hFn14 mutant H60A (human, UniProt Q9NP84 28-77). Description: phage ELISA (Method 2): antibody coated on the plate, 10-fold dilutions of phage displaying hFn14 H60A; biotin anti-M13 antibody, streptavidin-HRP, TMB, OD 450 nm; x axis = dilution of phage. As for the experimental part:
as §1, with “mutant H60A and H60K” for “mutant”, “ITEM-4. ITEM-2 was assessed on H60K.” for “ITEM-4.”, “assays.” for “assays. FIG. 28A L46A, FIG. 28B D51A and FIG. 28C D62A. In all cases error bars represent the standard deviation.”
(§2) The wells of Maxisorp immunoplates (Nunc) were coated overnight at 4° C. with the target monoclonal antibodies or recombinant Tweak-Fc at a concentration of 1.5 μg/ml in PBS. mAb 5G8 was used as a negative control for ELISA plates coated with tested antibodies. […] 10-fold serial dilutions of phage were made using PBS solution and phage dilutions were added to the coated, blocked ELISA plates for 1 hour, shaking at room temperature. Phage was subsequently removed from the wells and the ELISA plates were washed three times with PBS/0.05% Tween 20.
Method A: HRP-conjugated anti-M13-phage antibody (GE Healthcare) at a 1/5000 dilution in PBS was then added to the wells of the ELISA plates for 1 hour, shaking at room temperature. […]
(In general: In an ELISA, binding on a coated surface is turned into a signal by an enzyme label.)

For experiment [3], the target named is T1, Histidine tagged mouse Fn14 extracellular domain (mouse, UniProt Q9CR75 28-80).
T1 construct: extracellular domain; also called mFn14; not shown: (His)6 tag from pET-15b
T1 sequence (looked up): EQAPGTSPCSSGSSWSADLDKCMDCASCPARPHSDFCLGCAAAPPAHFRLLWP
Nature of the experiment: ELISA with purified His-tagged mouse Fn14; x axis 'Log (c)' without unit, µg/ml by the legend.

For experiment [4], the target named is T2, human Fn14 (human, UniProt Q9NP84 28-129).
T2 sequence: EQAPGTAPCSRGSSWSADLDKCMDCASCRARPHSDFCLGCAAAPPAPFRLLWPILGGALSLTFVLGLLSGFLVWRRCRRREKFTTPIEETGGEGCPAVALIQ
Description: cell-based or functional assay.

In experiment [5] the target is phage expressed hFn14 mutant A57G (human, UniProt Q9NP84 28-77). Description: phage ELISA (Method 2), antibody on plate, phage dilution 1/X on the x axis.
Sequence of phage expressed hFn14 mutant A57G (Q9NP84 28-77 A57G): as the sequence (Q9NP84 28-77 D51A) above, with A24D, A30G counted along it
Text: (§3) For mutants P59A and F63A, binding was detected using HRP-conjugated anti-M13-phage polyclonal IgG and TMB substrate. For all other mutants binding was detected using Biotin-conjugated anti-M13-phage monoclonal antibody followed by HRP-conjugated Streptavidin and TMB substrate. Optical density at 450 nm was quantified using a Spectramax spectrophotometer. Error bars for each dilution represent the standard deviation of duplicate assays. FIG. 27A wild type Fn14, FIG. 27B W42A, FIG. 27C S54A, FIG. 27D A57G, FIG. 27E P59A, FIG. 27F S61A, FIG. 27G F63A, FIG. 27H L65A. In all cases error bars represent the standard deviation. X axis=dilution of phage. Methods according to Epitope mapping using phage expressed Fn14—Method 2
as §2
(§4) Method A: HRP-conjugated anti-M13-phage antibody (GE Healthcare) at a 1/5000 dilution in PBS was then added to the wells of the ELISA plates for 1 hour, shaking at room temperature. The antibody solution was then removed from the wells and the ELISA plates were washed four times with PBS/0.05% Tween 20. Method B: Biotin-conjugated anti-M13-phage antibody (GE Healthcare) diluted in PBS was then added to the wells of the ELISA plates for 1 hour shaking at room temperature. The antibody solution was then removed from the wells and the ELISA plates were washed three times with PBS/0.05% Tween 20. HRP-conjugated Streptavidin diluted in PBS was then added to the wells of the ELISA plates for 1 hour, shaking at room temperature. The solution was then removed from the wells and the ELISA plates were washed three times with PBS/0.05% Tween 20. ELISAs were developed using TMB substrate and the reaction was stopped using 2 M […] solution.

Experiment [6] concerns the target phage expressed hFn14 mutant P59A (human, UniProt Q9NP84 28-77). The description is as above.
Text: as §3, §2, §4

In experiment [7] the target is T2, human Fn14. Description: cell-based or functional assay. This is another data set of the same source.

Sequence of phage expressed hFn14 mutant H60A (Q9NP84 28-77 H60A): as the sequence (Q9NP84 28-77 D51A) above, with A24D, H33A counted along it
Sequence of phage expressed hFn14 mutant P59A (Q9NP84 28-77 P59A): as the sequence (Q9NP84 28-77 D51A) above, with A24D, P32A counted along it

B1: CRCBT-06-002 (antibody, IgG1, V domains shown)
VH: EVKLQQSGGGLVQPGGSMKLSCVASGFTFSYYWMNWVRQSPEQGLEWIAEIRLQSNDYPTHYAESVKGRFTISRDDSKNSVYLQMNNLRPEDTGIYYCACRYADYFDHWGQGTTLTVSS
VL: DTVLTQSPASLVVSLGQRATISCRASQSVSTSDYSYIHWYQQKPGQPPKFLIKYASNRDSGVPARFSGSGSGTDFTLNIHPVEEDDTAIYYCQHSWEIPPTFGAGTKLELQR
For B1, the binding result in experiment [1], in experiment [2], in experiment [3], in experiment [5] and in experiment [6] was “binds” each time. The “NFκB-GFP reporter in HEK293T cells” value with human Fn14 [4] came out at 100 ng/mL. Besides, in the experiment with human Fn14 [7], the “% Agonist, IL-8 secretion by A375 cells” value came to 11%. Also, the “% Antagonist, IL-8 secretion by A375 cells” value with human Fn14 [7] was found to be 94%.

B2: CRCBT-06-001 (antibody, IgG2b, V domains shown)
VH: QVQLQQSGGGLVQPGGSMKLSCIASGFTFSSYWMSWVRQSPEKGLEWVAEIRSKSDNYATHYAESVKGKFTISRDDSKSRFFLQMNNLRAEDTGIYYCSSTYADYFHYWGQGTDLTVSS
VL: DIVMTQTPASLAVSLGQRATISCRASQSVSTSTYSYMHWYQQKPGQPPKLLIKYASSLESGVPARFSGSGSGTDFTLNIHPVEEDDTATYYCQHSWEIPYTFGGGTKLEIKR
For the molecule B2, the binding result in experiment [1], in experiment [2], in experiment [3], in experiment [5] and in experiment [6] was “binds” in each case. For the same molecule, in the experiment with human Fn14 [4], the “NFκB-GFP reporter in HEK293T cells” value was 1000 ng/mL. The “% Agonist, IL-8 secretion by A375 cells” value with human Fn14 [7] amounted to 128%.
